Data as given in the Immune Epitope Database (IEDB).

How the values were obtained:
HLA-A*02:03 [1] = test: IEDB peptide-MHC binding, purified MHC/direct/fluorescence; filed as Kd, often an IC50 or EC50 that approximates it; ≥ and ≤ were set here for values at or beyond the usual limits of such assays
HLA-A*69:01 = test: as above
HLA-B*45:06 = test: IEDB peptide-MHC binding, purified MHC/competitive/fluorescence; filed as Kd, often an IC50 or EC50 that approximates it; ≥ and ≤ were set here for values at or beyond the usual limits of such assays; conditions: source organism: Mycobacterium tuberculosis variant bovis BCG str. Pasteur 1173P2
HLA-B*83:01 = test: as above; conditions: source organism: Mycobacterium tuberculosis variant bovis BCG str. Pasteur 1173P2
HLA-B*15:42 = test: as above; conditions: source organism: Mycobacterium tuberculosis variant bovis BCG str. Pasteur 1173P2
HLA-B*46:01 = test: IEDB peptide-MHC binding, purified MHC/direct/fluorescence; filed as Kd, often an IC50 or EC50 that approximates it; ≥ and ≤ were set here for values at or beyond the usual limits of such assays
HLA-A*02:19 = test: as above
HLA-A*02:12 = test: as above
HLA-B*57:01 = test: as above
HLA-A*29:02 = test: as above
HLA-A*02:01 = test: as above
HLA-A*02:16 = test: as above
HLA-A*24:03 = test: as above
HLA-B*15:17 = test: as above
HLA-A*26:01 = test: as above
HLA-A*02:11 = test: as above
HLA-A*68:02 = test: as above
HLA-B*51:01 = test: as above
HLA-B*15:01 = test: as above
HLA-A*03:01 = test: as above
HLA-B*18:01 = test: as above
HLA-B*27:03 = test: as above
HLA-B*39:01 = test: as above; conditions: source organism: Entamoeba histolytica HM-1:IMSS
HLA-C*03:03 = test: as above
HLA-B*48:01 = test: IEDB peptide-MHC binding, purified MHC/competitive/fluorescence; filed as Kd, often an IC50 or EC50 that approximates it; ≥ and ≤ were set here for values at or beyond the usual limits of such assays
HLA-B*58:01 = test: IEDB peptide-MHC binding, purified MHC/direct/fluorescence; filed as Kd, often an IC50 or EC50 that approximates it; ≥ and ≤ were set here for values at or beyond the usual limits of such assays
HLA-B*15:09 = test: as above
HLA-B*07:02 = test: as above; conditions: source organism: Lake Victoria marburgvirus - Popp
HLA-A*11:01 = test: as above; conditions: source organism: Lake Victoria marburgvirus - Popp
HLA-A*01:01 = test: as above
HLA-A*31:01 = test: as above; conditions: source organism: Lake Victoria marburgvirus - Popp
HLA-B*27:05 = test: as above
HLA-B*08:01 = test: as above; conditions: source organism: Orthomarburgvirus marburgense
HLA-B*40:01 = test: as above; conditions: source organism: Lake Victoria marburgvirus - Popp
HLA-A*30:01 = test: IEDB peptide-MHC binding, purified MHC/competitive/fluorescence; filed as Kd, often an IC50 or EC50 that approximates it; ≥ and ≤ were set here for values at or beyond the usual limits of such assays
HLA-B*44:02 = test: IEDB peptide-MHC binding, purified MHC/direct/fluorescence; filed as Kd, often an IC50 or EC50 that approximates it; ≥ and ≤ were set here for values at or beyond the usual limits of such assays; conditions: source organism: Yellow fever virus
HLA-A*23:01 = test: as above; conditions: source organism: Influenza A virus (A/Memphis/1/1986(H3N2))
HLA-B*08:02 = test: as above; conditions: source organism: Escherichia coli O157:H7 str. EC869
HLA-A*02:03 [2] = test: IEDB peptide-MHC binding, purified MHC/competitive/fluorescence; filed as Kd, often an IC50 or EC50 that approximates it; ≥ and ≤ were set here for values at or beyond the usual limits of such assays; conditions: source organism: Human immunodeficiency virus 1
[3] = source organism: Listeria monocytogenes serotype 4b str. H7858
[4] = source organism: Entamoeba histolytica HM-1:IMSS
[5] = source organism: Francisella tularensis subsp. tularensis FSC033
[6] = source organism: Francisella tularensis subsp. holarctica LVS
[7] = source organism: Lake Victoria marburgvirus - Popp
[8] = source organism: Orthomarburgvirus marburgense
[9] = source organism: Yellow fever virus
[10] = source organism: Influenza A virus (A/Memphis/1/1986(H3N2))

## AIYDTMQYV
HLA-A*02:03 [1]; source organism: Mycobacterium tuberculosis str. Haarlem
  Kd: 0.003 µM
HLA-A*69:01; source organism: Mycobacterium tuberculosis
  Kd: 0.006 µM
HLA-B*45:06
  Kd: ≥ 5 µM
HLA-B*83:01
  Kd: ≥ 5 µM
HLA-B*15:42
  Kd: ≥ 5 µM

## ERYPGGVSL
HLA-B*46:01; [3]
  Kd: ≥ 20 µM
HLA-A*02:19; [3]
  Kd: ≥ 20 µM
HLA-A*02:12; [3]
  Kd: ≥ 20 µM
HLA-B*57:01; [3]
  Kd: ≥ 20 µM
HLA-A*29:02; [3]
  Kd: ≥ 20 µM
HLA-A*02:01; [3]
  Kd: ≥ 20 µM
HLA-A*02:16; [3]
  Kd: ≥ 20 µM
HLA-A*02:03 [1]; [3]
  Kd: ≥ 20 µM
HLA-A*24:03; [3]
  Kd: ≥ 20 µM
HLA-B*15:17; [3]
  Kd: ≥ 20 µM
HLA-A*26:01; [3]
  Kd: ≥ 20 µM
HLA-A*02:11; [3]
  Kd: ≥ 20 µM
HLA-A*69:01; [3]
  Kd: ≥ 20 µM
HLA-A*68:02; [3]
  Kd: ≥ 20 µM
HLA-B*51:01; [3]
  Kd: ≥ 20 µM
HLA-B*15:01; [3]
  Kd: ≥ 20 µM
HLA-A*03:01; [3]
  Kd: ≥ 20 µM
HLA-B*18:01; [3]
  Kd: ≥ 20 µM
HLA-B*27:03; [3]
  Kd: ≥ 20 µM

## FIILSTGKY
HLA-A*02:19; [4]
  Kd: ≥ 20 µM
HLA-B*39:01
  Kd: ≥ 20 µM
HLA-A*02:12; [4]
  Kd: ≥ 20 µM
HLA-B*57:01; [4]
  Kd: ≥ 20 µM
HLA-A*02:01; [4]
  Kd: ≥ 20 µM
HLA-A*02:16; [4]
  Kd: ≥ 20 µM
HLA-B*15:17; [4]
  Kd: 0.072 µM
HLA-A*02:11; [4]
  Kd: ≥ 20 µM
HLA-A*03:01; [4]
  Kd: ≥ 20 µM
HLA-B*18:01; [4]
  Kd: ≥ 20 µM
HLA-B*27:03; [4]
  Kd: ≥ 20 µM

## FLYDISISL
HLA-A*02:19; [5]
  Kd: 0.007 µM
HLA-A*02:12; [5]
  Kd: 0.003 µM
HLA-A*02:01; [6]
  Kd: 0.0011 µM
HLA-C*03:03; source organism: Francisella tularensis subsp. tularensis FSC198
  Kd: ≤ 0.001 µM
HLA-A*02:11; [5]
  Kd: ≤ 0.001 µM
HLA-A*69:01; [6]
  Kd: 0.0157 µM

## FPDGKPFTL
HLA-B*46:01; [3]
  Kd: ≥ 20 µM
HLA-A*02:19; [3]
  Kd: ≥ 20 µM
HLA-A*02:12; [3]
  Kd: ≥ 20 µM
HLA-B*57:01; [3]
  Kd: ≥ 20 µM
HLA-A*29:02; [3]
  Kd: ≥ 20 µM
HLA-A*02:01; [3]
  Kd: ≥ 20 µM
HLA-A*02:16; [3]
  Kd: ≥ 20 µM
HLA-A*02:03 [1]; [3]
  Kd: ≥ 20 µM
HLA-B*15:17; [3]
  Kd: ≥ 20 µM
HLA-A*26:01; [3]
  Kd: ≥ 20 µM
HLA-A*02:11; [3]
  Kd: ≥ 20 µM
HLA-B*51:01; [3]
  Kd: ≥ 20 µM
HLA-B*15:01; [3]
  Kd: ≥ 20 µM
HLA-A*03:01; [3]
  Kd: ≥ 20 µM
HLA-B*18:01; [3]
  Kd: ≥ 20 µM
HLA-B*27:03; [3]
  Kd: ≥ 20 µM

## FQLYPPQIL
HLA-C*03:03; [4]
  Kd: 0.033 µM
HLA-B*48:01; [4]
  Kd: 0.077 µM

## GELRKAICL
HLA-B*58:01; [7]
  Kd: ≥ 20 µM
HLA-B*15:09; [8]
  Kd: ≥ 20 µM
HLA-B*57:01; [7]
  Kd: ≥ 20 µM
HLA-A*02:01; [7]
  Kd: ≥ 20 µM
HLA-B*07:02
  Kd: ≥ 20 µM
HLA-A*11:01
  Kd: ≥ 20 µM
HLA-A*01:01; [7]
  Kd: ≥ 20 µM
HLA-B*15:17; [7]
  Kd: ≥ 20 µM
HLA-A*31:01
  Kd: ≥ 20 µM
HLA-A*26:01; [8]
  Kd: ≥ 20 µM
HLA-A*69:01; [7]
  Kd: ≥ 20 µM
HLA-A*68:02; [7]
  Kd: ≥ 20 µM
HLA-B*27:05; [7]
  Kd: ≥ 20 µM
HLA-B*08:01
  Kd: ≥ 20 µM
HLA-B*18:01; [7]
  Kd: 9 µM
HLA-B*40:01
  Kd: 0.074 µM
HLA-A*30:01; [8]
  Kd: ≥ 20 µM
HLA-B*48:01; [8]
  Kd: ≥ 20 µM

## IQYVIRAQL
HLA-B*46:01; [9]
  Kd: ≥ 20 µM
HLA-B*58:01; [9]
  Kd: ≥ 20 µM
HLA-B*15:09; [9]
  Kd: ≥ 20 µM
HLA-B*57:01; [9]
  Kd: ≥ 20 µM
HLA-A*01:01; [9]
  Kd: ≥ 20 µM
HLA-B*27:05; [9]
  Kd: ≥ 20 µM
HLA-A*03:01; [9]
  Kd: ≥ 20 µM
HLA-B*44:02
  Kd: ≥ 20 µM

## LQAMHGFPL
HLA-B*48:01; source organism: Escherichia coli O157:H7 str. EDL933
  Kd: 0.0968 µM

## NHDGIQAGV
HLA-B*46:01; [10]
  Kd: ≥ 20 µM
HLA-A*02:19; [10]
  Kd: ≥ 20 µM
HLA-A*02:12; [10]
  Kd: ≥ 20 µM
HLA-B*57:01; [10]
  Kd: ≥ 20 µM
HLA-A*29:02; [10]
  Kd: ≥ 20 µM
HLA-A*02:01; [10]
  Kd: ≥ 20 µM
HLA-A*02:16; [10]
  Kd: ≥ 20 µM
HLA-A*02:03 [1]; [10]
  Kd: ≥ 20 µM
HLA-A*24:03; [10]
  Kd: ≥ 20 µM
HLA-B*15:17; [10]
  Kd: ≥ 20 µM
HLA-A*26:01; [10]
  Kd: ≥ 20 µM
HLA-A*02:11; [10]
  Kd: ≥ 20 µM
HLA-A*23:01
  Kd: ≥ 20 µM
HLA-A*69:01; [10]
  Kd: ≥ 20 µM
HLA-A*68:02; [10]
  Kd: ≥ 20 µM
HLA-B*51:01; [10]
  Kd: ≥ 20 µM
HLA-B*15:01; [10]
  Kd: ≥ 20 µM
HLA-A*03:01; [10]
  Kd: ≥ 20 µM
HLA-B*18:01; [10]
  Kd: ≥ 20 µM
HLA-B*27:03; [10]
  Kd: ≥ 20 µM

## RMKMRRPHL
HLA-B*08:02
  Kd: 2.36 µM

## RSLYNTIAVLY
HLA-A*30:01; source organism: Human immunodeficiency virus 1
  Kd: 1.91 µM
HLA-A*02:03 [2]
  Kd: 0.679 µM
